Data published in article PMC6183340 (2018).

What was measured:
[1] = biological target: T1, WT1 (modified WT1 235 peptide, mWT1 235) peptide on HLA-A*24:02 (human); assay: NFAT-GFP reporter; TCR-transduced 2D3 cells, T2-2402 and titrated mWT1 235 peptide; full-length, on cells
T1 peptide: CYTWNQMNL

[2] = biological target: T2, WT1 (natural WT1 235 peptide, nWT1 235) peptide on HLA-A*24:02 (human); assay: NFAT-GFP reporter; TCR-transduced 2D3 cells, T2-2402 and titrated nWT1 235 peptide; full-length, on cells
T2 peptide: CMTWNQMNL

B1: TM-L1-TCR (TCR)
alpha TRAV17*01 TRAJ43*01 CDR3: CATDPGYNNDMRF
beta TRBV20-1*01 TRBJ2-2*01 CDR3: CSARGQRELSGELFF
For B1, the EC50 of peptide [1] was 1780 nM.

B2: FSK1-TCR (TCR)
alpha TRAV19*01 TRAJ26*01 CDR3: CALSAAYGQNFVF
beta TRBV6-5*01 TRBJ2-1*01 CDR3: CASSYGKGLYNEQFF
Work on B2 yielded an EC50 of peptide [1] of 976 nM.

B3: TM-H2-TCR (TCR)
alpha TRAV20*02 TRAJ52*01 CDR3: CAVRGGRAGGTSYGKLTF
beta TRBV9*01 TRBJ2-3*01 CDR3: CASSVFGSSTDTQYF
For B3, the EC50 of peptide [1] was 29.3 nM and the EC50 of peptide [2] was 180 nM.
